# Measured values reported in the nanobody polyreactivity screen of Harvey et al. (2022).
# Assay: yeast display, Sf9 membrane polyspecificity reagent, FACS + sequencing; frameworks hold sequencing errors
# Method in brief: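 A nanobody's polyreactivity label depends on the gate it was sorted from. Yeast display cells were stained with 10% biotinylated, detergent-solubilized Sf9 membrane reagent for 1 hour at 4 °C, enriched on streptavidin microbeads and sorted by FACS. The low and high (top ~1%) gates were set on anti-HA fluorescence for expression and streptavidin fluorescence for reagent binding.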
row,Sequence,polyreactivity (PSR sort gate)
1,QVQLVESGGGLVQAGGSLRLSCAPSGSIFRKNAMGWYRQAPGKERELVAAITGTGRTTYADSVKGRFTISRDNAKNTVYLQMNSLKPEDTAVYYCAAESVSSGDNASRYDYWGQGTQVTVSS,low polyreactivity
2,QVQLVESGGGLVQAGGSLRLSCAPSGSIFSWYAMGWYRQAPGKERELVAAIDDDDSTNYADSVKGRFTISRDNAKNTVYLQMNSQKPEDTAVYYCNTRSRPYWYIYRPGDYWGQGTQVTVSS,low polyreactivity
3,QVQLVESGGGLVQAGGSLRLSCAPSGSIFYLNAMGWYRQAPGKERELVAAISKRGSRTYYADSVKGRFTISRDNAKNTVYLQMNSLKPEDTAVYYCNALDTPGYNTEPARQYDHWGQGTQVTVSS,high polyreactivity
4,QVQLVESGGGLVQAGGSLRLSCAPSGSIFYRNAMGWYIQAPGKERELVAAISWSAARTYYADSVKGRFTISRDNAKNTVYLQMNSLKPEDTAVYYCATLYSYNYWGQGTQVTVSS,high polyreactivity
5,QVQLVESGGGLVQAGGSLRLSCAPSGSIFYSYAMVWYRQAPGKERELVASISRGGTTYYADSVKGRFTISRDNAKNTVYLQMNSLKPEDTAVYYCAAELSEWTNGFDYWGQGTQVTVSS,high polyreactivity
6,QVQLVESGGGLVQAGGSLRLSCAPSGSISFSNALGWYRQAPGKERELVASITSGGSTKYADSVKGRFTFSRDNAKNTVYLQMNSLQPEDTAVYYCNADSPESVYDEYDYWGQGTQVTVSS,low polyreactivity
7,QVQLVESGGGLVQAGGSLRLSCAPSGSSKLMLWDGIDRRLGKKGSWLPLFVLVVLRNYADSVKGRFTISRDNANNTVYLQMNSLKPEDTAVYYCAATPIGSGGWGDYWGQGTQVTVSS,low polyreactivity
8,QVQLVESGGGLVQAGGSLRLSCAPSGSTFTINVMGWYRQAPGKERELVAAINGGGRTNYADSVKGRFTISRDNAKNTVYLQINSLIPEDTAVYYCAADGLSNVRQMDYWGQGTQVTVSS,low polyreactivity
9,QVQLVESGGGLVQAGGSLRLSCAPSGSTFYPYAMGWYRQAPGKERELVAAISSGGSTYYADSVKGRFTISRDNAKNTVYLQMNSLKPEDTAVYYCAADFYYAYYWGQGTQVTVSS,low polyreactivity
10,QVQLVESGGGLVQAGGSLRLSCAPSGSTFYSNAMGWYRQAPGKERELVASISWSSGSTYYADSVKGRFTISRDNAKNTVYLQMNSLKPEDTAVYYCNKRPVILYDYWGQGTQVTVSS,low polyreactivity
11,QVQLVESGGGLVQAGGSLRLSCAPSGSTFYSYAMGGYRQAPGKERELVAAITVSGTSTYYADSVKGRFTISRDNAKNTVYLQMNSLKPEDTAVYYCAARPRRRYYGYDSWGQGTQVTVSS,high polyreactivity
12,QVQLVESGGGLVQAGGSLRLSCAPSGSTLFYNAMGCYRQSPGKETELVATISGGGVSTYYADSVNGRFRISRDNAKNSVYLQMYSLKPEDTAVYYCAAAGWSEGGYDYWGQGTQVTVSS,low polyreactivity
13,QVQLVESGGGLVQAGGSLRLSCAPSGSTSFSNDMGWYRQAPGKERELVAAIRSGGSTDYADSVKGRFTISRDNAKNTVYLQMNSLKPEDTEVYYFNATQYDAVYPGYARLYDYWGQGTQVTVSS,low polyreactivity
14,QVQLVESGGGLVQAGGSLRLSCAPSGSTYSRYAMGWYRQAPGKERELVAAISRSGGTTNYADSVKWRFTISRDNAKNTVYLQMNSLKPEDTAVYYCAAYLPFRQGRYGYEYWGQGTQVTVSS,high polyreactivity
15,QVQLVESGGGLVQAGGSLRLSCAPSGYIPYWYAMGWYRQAPGKERELVAAIDWSGASTNYADSVKGRFTISRDNAKNTVYLQMNSLKPEDTAVYYCAADAVSPDYFVWGDYWGQGTQVTVSS,high polyreactivity
16,QVQLVESGGGLVQAGGSLRLSCAPSVSINNHYAMGWYRQAPGKERELVAAISRSGGLTYYADSVKGRFTISRDNAKNTVYLQMNCLIAEDTAVYYCDAGTSWPWYQRDYWGQGTQVTVSS,low polyreactivity
17,QVQLVESGGGLVQAGGSLRLSCASGLTFYRYAMGWYRQAPGKERELVAAINVRGGSTYYADSVKGRFTISRDNAKNTVYLQMNSLKPEETAVYYCAAYYPGFSYRYDYWGQGTQVTVSS,low polyreactivity
18,QVQLVESGGGLVQAGGSLRLSCASSGFIFASYAMGWYRQAPGKERELVAAISYRGGTTYYADSVKGRFTISRDNAKNTVYLQMNSLKPEDTAVYYCAADSPENRYNYWGQGTQVTVSS,high polyreactivity
19,QVQLVESGGGLVQAGGSLRLSCASSGFIFPLYAMGWYRQAPGKERELVAAINWRGGTTYYADSVKGRFTISRDNAKNTVYLQINSLKPDDTAVYYCAATHWAYSRVPYDYWGQGTQVSVSS,high polyreactivity
20,QVQLVESGGGLVQAGGSLRLSCASSGFTFLINAMGWYRQAPGKERDLVAAIRSGGSTNYADSVKGRFTISRDNAKNTVYLQMNSLKPEDTAVYYCAARRYYPYKYRYGYWGQCTQVTVSS,high polyreactivity
21,QVQLVESGGGLVQAGGSLRLSCASSGFTFTSYAMGWYRQAPGKERELVAAISSSGGSTYYADSVKGRFTISRDNAKNTVYLQMNSLKPEDTAVYYCAAEYGYGEMDSWGQGTQVTVSS,high polyreactivity
22,QVQLVESGGGLVQAGGSLRLSCASSGFTFYIYVMGWYRQAPGKEREWVAAISSRGGSTYYADSVKGRFTISRDNAKNTVNSQMNSLKPEDTAVYYCNAVHYVLYGDYDYWGQGTQVTVSS,high polyreactivity

row,Sequence,polyreactivity (PSR sort gate)
1,QVQLVESGGGLVQAGGSLRLSCASSGFTINWNDMGWYRQAPGKERELVAAISGGASTYYADSVKGRFTISRDNAKNTVYLQMNSLKPEDTAVYYCAADLDEWGYLFDYWGQGTQVTVSS,low polyreactivity
2,QVQLVESGGGLVQAGGSLRLSCASSGFTLYGYTKGWYRQAPGKERELVAAISGSGGRTYYADSVKGRFTISRDNAKNTVYLHMNTLKPEDNAVYYCAADSRGTCDGYDYWGQGTQVTVSS,high polyreactivity
3,QVQLVESGGGLVQAGGSLRLSCASSGITFDKYAMGWYRQAPGKERELVAAISGSDGSTYYADSVKGRFTISRDNAKNTVYLQNNSLKPEDTAVYYCAAESEYAGTYEYDYWGQGNQVTVSS,low polyreactivity
4,QVQLVESGGGLVQAGGSLRLSCASSGITFILYAMGWYRQAPGKDRELVASITSGGSTDYADSVKGRFTISRDNAKNTVYFQMNSLKPEDTAVYYCAARYVYPYWYGDYYWGQGTQVTVSS,low polyreactivity
5,QVQLVESGGGLVQAGGSLRLSCASSGLIFYHYAMGWYRQAPGKERELVAAISWRGGTTYYADSVKGRFTISSDNAKNTVYLQMNSLKPEDTAVYYCNALLRSPGLGYDYWGQGTQVTVSS,high polyreactivity
6,QVQLVESGGGLVQAGGSLRLSCASSGLTFWPYVKGWYRQAPGKERELVAAIEDTGITYYADSVKGRFTISRDNAKNTVYLQMNSLTPDDTAVYYCATDWDYYFPWIYPSDAGPEDGYWGQGTQVTVSS,low polyreactivity
7,QVQLVESGGGLVQAGGSLRLSCASSGNTFKYDAMGWYRQAPGKERELVAAITWNGARTYYADSVKGRFTISRDNANYTGYLQMNRLKAEVTAVYYCNARQGYRFDYWGQGTQVSVSS,high polyreactivity
8,QVQLVESGGGLVQAGGSLRLSCASSGRIFDGYAMVWYRQAPGKERELVATISSGGSTYYADSVKGRFTISRDNAKNTVYLQMNSLKPEDTAVYYCAADSWVQFDYWGQGTQVTVSS,low polyreactivity
9,QVQLVESGGGLVQAGGSLRLSCASSGRIFDYNAKGWYRQAPGKERELVAAINSGGSTYADSVKGRFTISRDNAKNTVDLQMNSLKPEDTAVYYCAKSLGQTDWEYDSWGQGTQVTVSS,low polyreactivity
10,QVQLVESGGGLVQAGGSLRLSCASSGRIFFTNAMGWYRQAPGKERELVAAIRSSGGRTYYADSVKGRFTISRDNAKNTVYLQMNSLKPEDTAVYYCNVVDGRHISHYNYWGQGTQVTVSS,high polyreactivity
11,QVQLVESGGGLVQAGGSLRLSCASSGRIFGLYAMGWNRQAPGKERELVAAISRGGGSTYYADSVKGRFTISRDNAKNTVYLQMNSLKPEDTAVYYCATGLGYFSRLDYWGQGTQVTVSS,low polyreactivity
12,QVQLVESGGGLVQAGGSLRLSCASSGRIFGTYAMGWYRQAPGKERELVARIRTSGSTNYADSVKGRFTISRDNAKNTVYLQMNSLKPEDTAVYYCAADRRYYSAYEYWGQGTQVTVSS,high polyreactivity
13,QVQLVESGGGLVQAGGSLRLSCASSGRIFGVYAMGWYRQAPGKERELVAAITRGASTYYADSVKGRFTISRDNAKNTVYLQMNSLKPEDTAVYYCAVSQDRGIYRKYDYWGQGTQVTVSS,high polyreactivity
14,QVQLVESGGGLVQAGGSLRLSCASSGRIFRVNGMGWYRQAPGKESELVATITGSGGSTYYADSVKGRFTISRDNAKNTVYLQMNSLKPEDTAVYYCAAVSYWPTDRYYSWGQGTQVTVSS,low polyreactivity
15,QVQLVESGGGLVQAGGSLRLSCASSGRIFRYNTMGWYRPAPGKERELVADITSSDSSTYYADSVKGRFTISRDNAKNTVDLQMNSLKPEETAVYYCAARDSGYGWRYSYWGQGTQVTVSA,low polyreactivity
16,QVQLVESGGGLVQAGGSLRLSCASSGRIFWRNTMGWYRQAPVKETEFVASINGSGGSTSYADSVKGRFTISRDNAMNTVYLQMISLKPEDTEVDYCATDVTYQDVQLDYWGQRTQVTVSS,low polyreactivity
17,QVQLVESGGGLVQAGGSLRLSCASSGRIFYYNAMGWYRQAPGKERELVAAISKRGGITSYADSVKGRFTISRDNAKNTVYLPMNSLKPEDTAVYYCAADLVPWRGGYYYWGQGTLVTVSS,high polyreactivity
18,QVQLVESGGGLVQAGGSLRLSCASSGRNFCIYGMAWYRQAPGKERELVAAISYDSGSTYYADSVTGRFTISRDNAKNTVYLQMNSLNPEDTAVYYCAAEWGLVIYSTYGYDYWGQGTQVTVSS,low polyreactivity
19,QVQLVESGGGLVQAGGSLRLSCASSGRTFFRNPMGWYRQAPGKERELVAAISKRGGSTYYADSVKGRFTISRDNAKNTVYLQMISLSPEDTAVYYCNADPRTVGLDYWGQGTQVTVSS,high polyreactivity
20,QVQLVESGGGLVQAGGSLRLSCASSGRTFLINAMGWYRQAPWKERELVATISRSGGSTYYADSVKGRFTISRDNAKITVYLQMNSLKPEDTAVYYCAALVRIGYYYWGQGTQVTVSS,high polyreactivity
21,QVQLVESGGGLVQAGGSLRLSCASSGRTFRYYAMGWYRQAPGKERELVAAIRSGGITNYADSVKGRFTISRDNAKNTVYLQMNSLKPEDTAVYYCAVETPSTWFSGWGYDYDYWGQGTQVTVSS,high polyreactivity
